Test results from US20210388087A1 (Chugai, published 2021).

T1: Human CD3eg linker (human)
T1 construct: Single chain: epsilon and gamma subunits of human CD3 joined by a 29-mer linker, Flag-tag at the C-terminus; also called recombinant human CD3
T1 chain: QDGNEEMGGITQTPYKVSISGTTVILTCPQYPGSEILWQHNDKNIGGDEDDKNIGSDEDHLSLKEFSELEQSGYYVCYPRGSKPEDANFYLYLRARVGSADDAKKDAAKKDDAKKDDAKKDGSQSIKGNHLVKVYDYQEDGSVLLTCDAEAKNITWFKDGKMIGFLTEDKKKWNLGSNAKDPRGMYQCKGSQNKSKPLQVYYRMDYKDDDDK


Target: T1, Human CD3eg linker
Assay: Biacore SPR, vs template H183/L072

Binder	fold change of affinity [fold]
H183/L072 VH A60Y (antibody, name in Kabat numbering, V domains shown) VH: QVQLVESGGGLVQPGRSLRLSCAASGFTFSNAWMHWVRQAPGKGLEWVAQIKDKGNAYAAYYYPSVKGRFTISRDDSKNSIYLQMNSLKTEDTAVYYCHYVHYASASTVLPAFGVDAWGQGTTVTVSS VL: DIVMTQSPLSLPVTPGEPASISCQASQELVHMNRNTYLHWYQQKPGQAPRLLIYKVSNRFPGVPDRFSGSGSGTDFTLKISRVEAEDVGVYYCAQGTSVPFTFGQGTKLEIK	0.7
H183/L072 VH A100fP (antibody, name in Kabat numbering, V domains shown) VH: QVQLVESGGGLVQPGRSLRLSCAASGFTFSNAWMHWVRQAPGKGLEWVAQIKDKGNAYAAYYAPSVKGRFTISRDDSKNSIYLQMNSLKTEDTAVYYCHYVHYASASTVLPPFGVDAWGQGTTVTVSS VL: DIVMTQSPLSLPVTPGEPASISCQASQELVHMNRNTYLHWYQQKPGQAPRLLIYKVSNRFPGVPDRFSGSGSGTDFTLKISRVEAEDVGVYYCAQGTSVPFTFGQGTKLEIK	0.6
H183/L072 VH A102P (antibody, name in Kabat numbering, V domains shown) VH: QVQLVESGGGLVQPGRSLRLSCAASGFTFSNAWMHWVRQAPGKGLEWVAQIKDKGNAYAAYYAPSVKGRFTISRDDSKNSIYLQMNSLKTEDTAVYYCHYVHYASASTVLPAFGVDPWGQGTTVTVSS VL: DIVMTQSPLSLPVTPGEPASISCQASQELVHMNRNTYLHWYQQKPGQAPRLLIYKVSNRFPGVPDRFSGSGSGTDFTLKISRVEAEDVGVYYCAQGTSVPFTFGQGTKLEIK	0
H183/L072 VH D52aA (antibody, name in Kabat numbering, V domains shown) VH: QVQLVESGGGLVQPGRSLRLSCAASGFTFSNAWMHWVRQAPGKGLEWVAQIKAKGNAYAAYYAPSVKGRFTISRDDSKNSIYLQMNSLKTEDTAVYYCHYVHYASASTVLPAFGVDAWGQGTTVTVSS VL: DIVMTQSPLSLPVTPGEPASISCQASQELVHMNRNTYLHWYQQKPGQAPRLLIYKVSNRFPGVPDRFSGSGSGTDFTLKISRVEAEDVGVYYCAQGTSVPFTFGQGTKLEIK	0
H183/L072 VH A98M (antibody, name in Kabat numbering, V domains shown) VH: QVQLVESGGGLVQPGRSLRLSCAASGFTFSNAWMHWVRQAPGKGLEWVAQIKDKGNAYAAYYAPSVKGRFTISRDDSKNSIYLQMNSLKTEDTAVYYCHYVHYMSASTVLPAFGVDAWGQGTTVTVSS VL: DIVMTQSPLSLPVTPGEPASISCQASQELVHMNRNTYLHWYQQKPGQAPRLLIYKVSNRFPGVPDRFSGSGSGTDFTLKISRVEAEDVGVYYCAQGTSVPFTFGQGTKLEIK	1
H183/L072 VH A98I (antibody, name in Kabat numbering, V domains shown) VH: QVQLVESGGGLVQPGRSLRLSCAASGFTFSNAWMHWVRQAPGKGLEWVAQIKDKGNAYAAYYAPSVKGRFTISRDDSKNSIYLQMNSLKTEDTAVYYCHYVHYISASTVLPAFGVDAWGQGTTVTVSS VL: DIVMTQSPLSLPVTPGEPASISCQASQELVHMNRNTYLHWYQQKPGQAPRLLIYKVSNRFPGVPDRFSGSGSGTDFTLKISRVEAEDVGVYYCAQGTSVPFTFGQGTKLEIK	4.6
H183/L072 VH A100fL (antibody, name in Kabat numbering, V domains shown) VH: QVQLVESGGGLVQPGRSLRLSCAASGFTFSNAWMHWVRQAPGKGLEWVAQIKDKGNAYAAYYAPSVKGRFTISRDDSKNSIYLQMNSLKTEDTAVYYCHYVHYASASTVLPLFGVDAWGQGTTVTVSS VL: DIVMTQSPLSLPVTPGEPASISCQASQELVHMNRNTYLHWYQQKPGQAPRLLIYKVSNRFPGVPDRFSGSGSGTDFTLKISRVEAEDVGVYYCAQGTSVPFTFGQGTKLEIK	1.2
H183/L072 VH A100I (antibody, name in Kabat numbering, V domains shown) VH: QVQLVESGGGLVQPGRSLRLSCAASGFTFSNAWMHWVRQAPGKGLEWVAQIKDKGNAYAAYYAPSVKGRFTISRDDSKNSIYLQMNSLKTEDTAVYYCHYVHYASISTVLPAFGVDAWGQGTTVTVSS VL: DIVMTQSPLSLPVTPGEPASISCQASQELVHMNRNTYLHWYQQKPGQAPRLLIYKVSNRFPGVPDRFSGSGSGTDFTLKISRVEAEDVGVYYCAQGTSVPFTFGQGTKLEIK	1.4
H183/L072 VH A100M (antibody, name in Kabat numbering, V domains shown) VH: QVQLVESGGGLVQPGRSLRLSCAASGFTFSNAWMHWVRQAPGKGLEWVAQIKDKGNAYAAYYAPSVKGRFTISRDDSKNSIYLQMNSLKTEDTAVYYCHYVHYASMSTVLPAFGVDAWGQGTTVTVSS VL: DIVMTQSPLSLPVTPGEPASISCQASQELVHMNRNTYLHWYQQKPGQAPRLLIYKVSNRFPGVPDRFSGSGSGTDFTLKISRVEAEDVGVYYCAQGTSVPFTFGQGTKLEIK	1
H183/L072 VH A102M (antibody, name in Kabat numbering, V domains shown) VH: QVQLVESGGGLVQPGRSLRLSCAASGFTFSNAWMHWVRQAPGKGLEWVAQIKDKGNAYAAYYAPSVKGRFTISRDDSKNSIYLQMNSLKTEDTAVYYCHYVHYASASTVLPAFGVDMWGQGTTVTVSS VL: DIVMTQSPLSLPVTPGEPASISCQASQELVHMNRNTYLHWYQQKPGQAPRLLIYKVSNRFPGVPDRFSGSGSGTDFTLKISRVEAEDVGVYYCAQGTSVPFTFGQGTKLEIK	1
H183/L072 VH A102L (antibody, name in Kabat numbering, V domains shown) VH: QVQLVESGGGLVQPGRSLRLSCAASGFTFSNAWMHWVRQAPGKGLEWVAQIKDKGNAYAAYYAPSVKGRFTISRDDSKNSIYLQMNSLKTEDTAVYYCHYVHYASASTVLPAFGVDLWGQGTTVTVSS VL: DIVMTQSPLSLPVTPGEPASISCQASQELVHMNRNTYLHWYQQKPGQAPRLLIYKVSNRFPGVPDRFSGSGSGTDFTLKISRVEAEDVGVYYCAQGTSVPFTFGQGTKLEIK	0.7
H183/L072 VH A100L (antibody, name in Kabat numbering, V domains shown) VH: QVQLVESGGGLVQPGRSLRLSCAASGFTFSNAWMHWVRQAPGKGLEWVAQIKDKGNAYAAYYAPSVKGRFTISRDDSKNSIYLQMNSLKTEDTAVYYCHYVHYASLSTVLPAFGVDAWGQGTTVTVSS VL: DIVMTQSPLSLPVTPGEPASISCQASQELVHMNRNTYLHWYQQKPGQAPRLLIYKVSNRFPGVPDRFSGSGSGTDFTLKISRVEAEDVGVYYCAQGTSVPFTFGQGTKLEIK	1.2
H183/L072 VH D52aE (antibody, name in Kabat numbering, V domains shown) VH: QVQLVESGGGLVQPGRSLRLSCAASGFTFSNAWMHWVRQAPGKGLEWVAQIKEKGNAYAAYYAPSVKGRFTISRDDSKNSIYLQMNSLKTEDTAVYYCHYVHYASASTVLPAFGVDAWGQGTTVTVSS VL: DIVMTQSPLSLPVTPGEPASISCQASQELVHMNRNTYLHWYQQKPGQAPRLLIYKVSNRFPGVPDRFSGSGSGTDFTLKISRVEAEDVGVYYCAQGTSVPFTFGQGTKLEIK	0
H183/L072 VH A100P (antibody, name in Kabat numbering, V domains shown) VH: QVQLVESGGGLVQPGRSLRLSCAASGFTFSNAWMHWVRQAPGKGLEWVAQIKDKGNAYAAYYAPSVKGRFTISRDDSKNSIYLQMNSLKTEDTAVYYCHYVHYASPSTVLPAFGVDAWGQGTTVTVSS VL: DIVMTQSPLSLPVTPGEPASISCQASQELVHMNRNTYLHWYQQKPGQAPRLLIYKVSNRFPGVPDRFSGSGSGTDFTLKISRVEAEDVGVYYCAQGTSVPFTFGQGTKLEIK	1.3

Now from value to binder:

fold change of affinity [fold]	Binder
0.9	H183/L072 VH A102I (antibody, name in Kabat numbering, V domains shown) VH: QVQLVESGGGLVQPGRSLRLSCAASGFTFSNAWMHWVRQAPGKGLEWVAQIKDKGNAYAAYYAPSVKGRFTISRDDSKNSIYLQMNSLKTEDTAVYYCHYVHYASASTVLPAFGVDIWGQGTTVTVSS VL: DIVMTQSPLSLPVTPGEPASISCQASQELVHMNRNTYLHWYQQKPGQAPRLLIYKVSNRFPGVPDRFSGSGSGTDFTLKISRVEAEDVGVYYCAQGTSVPFTFGQGTKLEIK
1.3	H183/L072 VH A100fM (antibody, name in Kabat numbering, V domains shown) VH: QVQLVESGGGLVQPGRSLRLSCAASGFTFSNAWMHWVRQAPGKGLEWVAQIKDKGNAYAAYYAPSVKGRFTISRDDSKNSIYLQMNSLKTEDTAVYYCHYVHYASASTVLPMFGVDAWGQGTTVTVSS VL: DIVMTQSPLSLPVTPGEPASISCQASQELVHMNRNTYLHWYQQKPGQAPRLLIYKVSNRFPGVPDRFSGSGSGTDFTLKISRVEAEDVGVYYCAQGTSVPFTFGQGTKLEIK
0.2	H183/L072 VH A98P (antibody, name in Kabat numbering, V domains shown) VH: QVQLVESGGGLVQPGRSLRLSCAASGFTFSNAWMHWVRQAPGKGLEWVAQIKDKGNAYAAYYAPSVKGRFTISRDDSKNSIYLQMNSLKTEDTAVYYCHYVHYPSASTVLPAFGVDAWGQGTTVTVSS VL: DIVMTQSPLSLPVTPGEPASISCQASQELVHMNRNTYLHWYQQKPGQAPRLLIYKVSNRFPGVPDRFSGSGSGTDFTLKISRVEAEDVGVYYCAQGTSVPFTFGQGTKLEIK
1	H183/L072 VH A100fI (antibody, name in Kabat numbering, V domains shown) VH: QVQLVESGGGLVQPGRSLRLSCAASGFTFSNAWMHWVRQAPGKGLEWVAQIKDKGNAYAAYYAPSVKGRFTISRDDSKNSIYLQMNSLKTEDTAVYYCHYVHYASASTVLPIFGVDAWGQGTTVTVSS VL: DIVMTQSPLSLPVTPGEPASISCQASQELVHMNRNTYLHWYQQKPGQAPRLLIYKVSNRFPGVPDRFSGSGSGTDFTLKISRVEAEDVGVYYCAQGTSVPFTFGQGTKLEIK
0	H183/L072 VH D52aF (antibody, name in Kabat numbering, V domains shown) VH: QVQLVESGGGLVQPGRSLRLSCAASGFTFSNAWMHWVRQAPGKGLEWVAQIKFKGNAYAAYYAPSVKGRFTISRDDSKNSIYLQMNSLKTEDTAVYYCHYVHYASASTVLPAFGVDAWGQGTTVTVSS VL: DIVMTQSPLSLPVTPGEPASISCQASQELVHMNRNTYLHWYQQKPGQAPRLLIYKVSNRFPGVPDRFSGSGSGTDFTLKISRVEAEDVGVYYCAQGTSVPFTFGQGTKLEIK
3.7	H183/L072 VH A98L (antibody, name in Kabat numbering, V domains shown) VH: QVQLVESGGGLVQPGRSLRLSCAASGFTFSNAWMHWVRQAPGKGLEWVAQIKDKGNAYAAYYAPSVKGRFTISRDDSKNSIYLQMNSLKTEDTAVYYCHYVHYLSASTVLPAFGVDAWGQGTTVTVSS VL: DIVMTQSPLSLPVTPGEPASISCQASQELVHMNRNTYLHWYQQKPGQAPRLLIYKVSNRFPGVPDRFSGSGSGTDFTLKISRVEAEDVGVYYCAQGTSVPFTFGQGTKLEIK
